Data published in paper PMC2367706.
Like-named read-outs stand apart in the source and are kept apart here.

T1: GST:CD+HD (UniProt Q01826 255-763)
T1 sequence: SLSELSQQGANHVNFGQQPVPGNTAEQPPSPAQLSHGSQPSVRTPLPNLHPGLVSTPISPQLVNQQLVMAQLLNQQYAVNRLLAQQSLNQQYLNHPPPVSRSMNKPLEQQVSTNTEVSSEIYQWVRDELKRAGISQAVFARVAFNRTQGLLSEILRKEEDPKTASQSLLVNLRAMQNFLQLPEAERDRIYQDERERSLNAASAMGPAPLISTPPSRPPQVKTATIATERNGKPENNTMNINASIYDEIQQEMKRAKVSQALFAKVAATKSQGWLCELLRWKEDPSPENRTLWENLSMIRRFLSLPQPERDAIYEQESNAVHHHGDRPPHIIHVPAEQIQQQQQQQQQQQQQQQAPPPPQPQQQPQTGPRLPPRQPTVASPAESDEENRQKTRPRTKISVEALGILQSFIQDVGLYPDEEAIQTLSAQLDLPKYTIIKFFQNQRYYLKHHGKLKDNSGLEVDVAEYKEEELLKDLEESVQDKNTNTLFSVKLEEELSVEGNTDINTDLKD

T2: GST:HD (UniProt Q01826 640-763)
T2 sequence: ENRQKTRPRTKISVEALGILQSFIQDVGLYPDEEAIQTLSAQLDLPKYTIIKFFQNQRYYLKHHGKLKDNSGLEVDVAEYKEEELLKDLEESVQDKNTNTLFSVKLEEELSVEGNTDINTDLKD


Tests used:
Assay in all cases: EMSA
GST:CD+HD [1] = target: T1, GST:CD+HD
GST:CD+HD [2] = target: T1, GST:CD+HD; remark: listed apart in the source
GST:HD = target: T2, GST:HD

| Binder | Kd (GST:CD+HD [1]) [nM] | Kd (GST:CD+HD [2]) [nM] | Kd (GST:HD) [nM] |
| --- | --- | --- | --- |
| probe 5 (dsDNA) DNA 1: TATTAATAATAATATTAATAATAA DNA 2: TTATTATTAATATTATTATTAATA | 10 |  |  |
| CSBS dimer (probe 1) (dsDNA) DNA 1: TATTAGTAATAATATTAGTAATAA DNA 2: TTATTACTAATATTATTACTAATA |  | 10 | 200 |
| probe 10 (dsDNA) DNA 1: TATTAGTAATACTATTAGTAATAC DNA 2: GTATTACTAATAGTATTACTAATA | 20 |  | 200 |
| probe 3 (dsDNA) DNA 1: TATTAGCAATAATATTAGCAATAA DNA 2: TTATTGCTAATATTATTGCTAATA | 50 |  |  |
| probe 9 (dsDNA) DNA 1: TATTAGTAATCATATTAGTAATCA DNA 2: TGATTACTAATATGATTACTAATA | 10 |  |  |
| probe 13 (IgH MAR core dimer) (dsDNA) DNA 1: AATTTCTAATATAATTTCTAATAT DNA 2: ATATTAGAAATTATATTAGAAATT | 10 |  |  |
